Measured values: the supplement of paper PMC11780869

System: Bacillus subtilis
Test: cleaved RNA product abundance (RNA/gDNA barcode ratio) relative to median wild-type variant (ratio to wild type); higher = more accumulation of the downstream cleavage product
In short: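 Truncated aprE or tetM reporter mRNAs with barcoded RNase Y cleavage-site windows, mutagenized from oligos at a 9% error rate, sat in the B. subtilis chromosome. Cells grew in LB at 37°C from OD600 0.0003 to 0.3. Gel-selected cleaved RNA was reverse transcribed and its barcodes sequenced with those from genomic DNA, collapsing by UMI. Cleaved product abundance equals the RNA:gDNA barcode ratio per construct over the median construct with the unmutated site.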

[1] = experiment (reporter, strain, medium): exp 2b: truncated aprE reporter, strain BJT200, cleavage site: cggR-gapA (positions -7 to +36 mutated)
[2] = experiment (reporter, strain, medium): exp 4a: truncated aprE reporter, strain BJT201 with 2% xylose (RNase J1 expressed), cleavage site: cggR-gapA (positions -7 to +36 mutated)
[3] = experiment (reporter, strain, medium): exp 8a: truncated aprE reporter, strain BJT201 with 2% xylose (RNase J1 expressed), cleavage site: glnRA (positions -5 to +31 mutated)

| Sequence | cleaved RNA product abundance [2] | further results |
| --- | --- | --- |
| ACAGACGAAGGAGCCGCAAAGAAGTTATTAAGGGATGTATAATACCTCAATATAAATATCTCTCACTTATTTAAA | 0.103 | cleaved RNA product abundance [1]: 0.139 |
| CGACATGTCCCGCTTCTTTCATTAATCCGTTAGCAAGCGTTTTGCTATATACATTTACCTTTTAAGAGGAGGAAT |  | cleaved RNA product abundance [3]: 0.684 |
| CGACATGTCCCGCTTCTTTCATTAATCCGTTAGCAACTGTTTTGCTATAGACATTCACCTTTTAAGAGGAGGAAT |  | cleaved RNA product abundance [3]: 0.435 |
| ACAGACGAAGGAGCCGCAAAGAAGTTATTAAGGAATGAATAGTCCCTCAATATAAATATCTCTCACTTATTTAAA | 0.114 | cleaved RNA product abundance [1]: 0.101 |
| ACAGACGAAGGAGCCGCAAAGAAGTTATTAAGGGATGAATAATCCTACAATATAAATATCTCTCACTTATTTAAA | 0.295 |  |
| ACAGACGAAGGAGCCGCAAAAAAGTTATTAAGGGATGAACAATCCCTCAATATAAATATCTCTCACTTATTTAAA | 0.764 | cleaved RNA product abundance [1]: 0.87 |
| ACAGACGAAGGAGCCGCAAAGAAGTTATTAAGGGATGAATAATTCCTCAATATAAAAATCTCTCACTTATTTAAA | 0.86 |  |
| ACAGACGAAGGAGCCGCAAAGAAGTTATTATGGGATGAATAATCCCTCAACATAAATATCTCTCACTTATTTAAA | 0.361 |  |
| ACAGACGAAGGAGCCGCAAAGAAGTCATGAAGGGATGAATAATCCCTCAATATAAATATCTCTCACTTATTTAAA | 0.325 |  |
| ACAGACGAAGGAGCCGCAAAGAAGTTATTAAGGTAAGAATAATCCCTCAATATAAATATCTCTCACTTATTTAAA | 0.0843 |  |
| ACAGACGAAGGAGCCGCAAAAAAGTTATTAAGGGATGAATAATCCGTCAATATAAATATCTCTCACTTATTTAAA | 0.242 | cleaved RNA product abundance [1]: 0.168 |
| ACAGACGAAGGAGCCGCAAAGACGTTATTAAGGGATGAATAATCCCTCGATATAAATATCTCTCACTTATTTAAA | 0.386 |  |
| CGACATGTCCCGCTTCTTTCATTAATCCGTTAGCAACTGTTATGCTATATACGTTTACCTTTTAAGAGGAGGAAT |  | cleaved RNA product abundance [3]: 0.232 |
| ACAGACGAAGGAGCCGCAAAGAAGTTATTAAGGGATGAATAATCACTGAATATAAATATCTCTCACTTATTTAAA | 0.0697 | cleaved RNA product abundance [1]: 0.0838 |
| CGACATGTCCCGCTTCTTTCATTAATCCGTCAGCAACTTTTTTGCTATATACATTTACCTTTTAAGAGGAGGAAT |  | cleaved RNA product abundance [3]: 0.621 |
| CGACATGTCCCGCTTCTTTCATTAATCCGTTAGCAACTATTTAGCTATATACATTTACCTTTTAAGAGGAGGAAT |  | cleaved RNA product abundance [3]: 1.01 |
| ACAGACGAAGGAGCCGCTAAGAAGTTATTAAGGGATGACTAATCCCTCAATATAAATATCTCTCACTTATTTAAA | 0.542 |  |
| ACAGACGAAGGAGCCGCAAAGAAGTTATTAAGGCATGAATAATCCCTCTATATAAATATCTCTCACTTATTTAAA | 0.0965 | cleaved RNA product abundance [1]: 0.0791 |
| CGACATGTCCCGCTTCTTTCATTAATCCGTTAGCAACTTTTTTACTATATACATTTACCTTTTAAGAGGAGGAAT |  | cleaved RNA product abundance [3]: 0.744 |
| ACAGACGAAGGAGCCGCAAAGAAGTTATTAAGGGATGAATAATCCCGAAATATAAATATCTCTCACTTATTTAAA | 0.323 |  |
| ACAGACGAAGGAGCCGCAAAGAAGTTATTATAGGATGAATAATCCCTCAATATAAATATCTCTCACTTATTTAAA | 0.203 | cleaved RNA product abundance [1]: 0.149 |

| Sequence | cleaved RNA product abundance [2] | further results |
| --- | --- | --- |
| ACAGACGAAGGAGCCGCAAAGAAGTTATTAAGGGATGAATAATCCCTTAATATATATATCTCTCACTTATTTAAA | 0.895 |  |
| ACAGACGAAGGAGCCGCAAAAAAGTTATTAAGGGAAGAATAATCCCTCAATATAAATATCTCTCACTTATTTAAA | 0.403 | cleaved RNA product abundance [1]: 0.426 |
| ACAGACGAAGGAGCCGCAAAGAAGTTATTAAGGGATGAATAATTCCTCAAGATAAATATCTCTCACTTATTTAAA | 0.256 | cleaved RNA product abundance [1]: 0.146 |
| CGACATGTCCCGCTTCTTTCATTAATCCGTTAGCCACTATTTTGCTATATACATTTACCTTTTAAGAGGAGGAAT |  | cleaved RNA product abundance [3]: 0.358 |
| ACAGACGAAGGAGCCGCAAAAAAGTTAATAAGGGATGAATATTCCCTCAATATAAATATCTCTCACTTATTTAAA | 0.21 |  |
| ACAGACGAAGGAGCCGCAAAGAAGTTATGAAGGGATGAATAATCCTTCAATATAAATATCTCTCACTTATTTAAA | 0.441 |  |
| ACAGACGAAGGAGCCGCAAAGATGTTATTAAGGGATGAATAATCCCTCATTATAAATATCTCTCACTTATTTAAA | 0.411 |  |
| CGACATGTCCCGCTTCTTTCATTAATCCATTAGCAACTGTTTTACTATATACATTTACCTTTTAAGAGGAGGAAT |  | cleaved RNA product abundance [3]: 0.48 |
| ACAGACGAAGGAGCCGCAAAGAAGTTATTAAGGGATGATTAATCCCTCAAGATAAATATCTCTCACTTATTTAAA | 0.304 |  |
| ACAGACGAAGGAGCCGCATAGAAGTTATTAAGGGATGAATAACCCCTCAATATAAATATCTCTCACTTATTTAAA |  | cleaved RNA product abundance [1]: 0.457 |
| ACAGACGAAGGAGCCGCAAAGAAGTCATTAAGGTATGAATAATCCCTCAATATAAATATCTCTCACTTATTTAAA |  | cleaved RNA product abundance [1]: 0.0941 |
| ACAGACGAAGGAGCCGCAAAGAAGTTATTAAGGGATGAATAATACCTCAATATAGATATCTCTCACTTATTTAAA | 0.147 |  |
| ACAGACGAAGGAGCCGCAAAAAAGTTATTAAGGGATGAATAATCCCTCAATATAAATACCTCTCACTTATTTAAA | 0.493 |  |
| ACAGACGAAGGAGCCGCAAAGAAGTTATTAAGGGACGAATAATCTCTCAATATAAATATCTCTCACTTATTTAAA |  | cleaved RNA product abundance [1]: 0.139 |
| ACAGACGAAGGAGCCGCAAAGAAGTTATTAAGGGATGAATAATCCCTGAACATAAATATCTCTCACTTATTTAAA | 0.242 |  |
| ACAGACGAAGGAGCCGCAAAGAAGTTATTAAGGCATGAATAATCCCTCAATATAAATATCTCTCACTATTTAAAG | 0.146 |  |
| ACAGACGAAGGAGCCGCAAAGAAGTTATTAAGGGATGAATAATCCCCCACTATAAATATCTCTCACTTATTTAAA | 0.3 |  |
| CGACATGTCCCGCTTCTTTCATTAATTTGTTAGCAACTGTTTTGCTATATACATTTACCTTTTAAGAGGAGGAAT |  | cleaved RNA product abundance [3]: 1.37 |
| ACAGACGAAGGAGCCGCAAAGAAGTTATTAAGGGATGAATAATCCCTCAATATAAATATCTCTCACTTATTTAAA |  | cleaved RNA product abundance (experiment (reporter, strain, medium): exp 6: tetM reporter, strain 168, cleavage site: cggR-gapA (positions -7 to +36 mutated)): 1.06 |
| ACAGACGAAGGAGCCGCAAAGAAGTTATTAAGGGGTGAATAATCCCTCAATATAAATACCTCTCACTTATTTAAA | 0.623 |  |
| ACAGACGAAGGAGCCGCAAAGAAGTTATCAAGGGATGAATAATCCCTCATTATAAATATCTCTCACTTATTTAAA |  | cleaved RNA product abundance [1]: 0.216 |

| Sequence | cleaved RNA product abundance [2] | further results |
| --- | --- | --- |
| CGACATGTCCCGCTTCTTTCATTAGTCCGTTAGCAACTGTTTTGATATATACATTTACCTTTTAAGAGGAGGAAT |  | cleaved RNA product abundance [3]: 0.542 |
| ACAGACGAAGGAGCCGCAAAGAAGTTATTAAGGGATGAATAATCACTCAATATAAAGATCTCTCACTTATTTAAA | 0.0885 |  |
| ACAGACGAAGGAGCCGCAATGAAGTTATTAAGGAATGAATAATCCCTCAATATAAATATCTCTCACTTATTTAAA | 0.102 | cleaved RNA product abundance [1]: 0.131 |
| CGACATGTCCCGCTTCTTTCATTAATCCGTTAGCAACTGTTTTTGCTATATACATTTACCTTTTAAGAGGAGGAA |  | cleaved RNA product abundance [3]: 0.946 |
| ACAGACGAAGGAGCCGCAAATAAGTTATTAAGGGAGGAATAATCCCTCAATATAAATATCTCTCACTTATTTAAA | 0.469 | cleaved RNA product abundance [1]: 0.554 |
| ACAGACGAAGGAGCCGCAAAGAAATTATTTAGGGATGAATAATCCCTCAATATAAATATCTCTCACTTATTTAAA | 0.718 |  |
| CGACATGTCCCGCTTCTTTCATTACTCCGTTAGCAACTGTTTTGCTATATACATTTTCCTTTTAAGAGGAGGAAT |  | cleaved RNA product abundance [3]: 0.403 |
| CGACATGTCCCGCTTCTTTCATTAATCCGTTAGCAACTGGTTTGATATATACATTTACCTTTTAAGAGGAGGAAT |  | cleaved RNA product abundance [3]: 0.485 |
| ACAGACGAAGGAGCCGCAGATAAGTTATTAAGGGATGAATAATCCCTCAATATAAATATCTCTCACTTATTTAAA | 0.636 |  |
| CGACATGTCCCGCTTCTTTCATTAATCCGTTAGCAACTGTTTTGCTATATACATTTAGCATTTAAGAGGAGGAAT |  | cleaved RNA product abundance [3]: 0.755 |
| ACAGACGAAGGAGCCGCAAAGAACTTATAAAGGGACGAATAATCCCTCAATATAAATATCTCTCACTTATTTAAA | 0.162 |  |
| ACAGACGAAGGAGCCGCAAAGAATTGATTAAGGGATGAATAATCCCTCAATATAAATATCTCTCACTTATTTAAA | 0.439 |  |
| ACAGACGAAGGAGCCGCAAAGAAGTTATTAAGGCATGAATAATCCCTCAACATAAATATCTCTCACTTATTTAAA | 0.112 | cleaved RNA product abundance [1]: 0.119 |
| CGACATGTCCCGCTTCTTTCATTAATCCGTTAGCAACGGTTTTGCCATATACATTTACCTTTTAAGAGGAGGAAT |  | cleaved RNA product abundance [3]: 0.202 |
| ACAGACGAAGGAGCCGCAAAGAAATTATTAAGGGATGAATAAACCCTCAATATAAATATCTCTCACTTATTTAAA | 0.49 | cleaved RNA product abundance [1]: 0.405 |
| ACAGACGAAGGAGCCGCAAGGAAGTTATTAAGGCATGAATAATCCCTCAATATAAATATCTCTCACTTATTTAAA | 0.148 |  |
| CGACATGTCCCGCTTCTTTCATTAATCCGTTTGCAACTGTTTTGCTATCTACATTTACCTTTTAAGAGGAGGAAT |  | cleaved RNA product abundance [3]: 0.203 |
| CGACATGTCCCGCTTCTTTCATTAATCCGTTAGCAATTGTTTTGTTATATACATTTACCTTTTAAGAGGAGGAAT |  | cleaved RNA product abundance [3]: 0.425 |
| ACAGACGAAGGAGCCGCAAAGAAGTAATTAAGGGATGAATAATCCCTCAATATAAATAGCTCTCACTTATTTAAA | 0.15 |  |
